This series addresses reconstituted tissue factor (Innovin, Dade) (UniProt P13726).
Sequence of UniProt P13726 (P13726 33-295): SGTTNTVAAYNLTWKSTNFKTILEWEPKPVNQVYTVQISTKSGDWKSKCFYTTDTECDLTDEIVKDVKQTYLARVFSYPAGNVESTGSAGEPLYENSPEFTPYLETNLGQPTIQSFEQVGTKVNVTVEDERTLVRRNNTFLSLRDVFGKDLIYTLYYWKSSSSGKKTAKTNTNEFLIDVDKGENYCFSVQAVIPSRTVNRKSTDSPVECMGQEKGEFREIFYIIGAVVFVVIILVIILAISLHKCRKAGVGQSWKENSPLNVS

In the case of “factor VII with leucine for phenylalanine at position 5 (which contained the Q11E33 mutations)”, the “competition with active-site modified VIIa (0-3.2 nM), clotting time” value is “had much lower activity than the Q11E33 mutant”.
Consider Human factor VIIa-T9Q11E33, for which the “competition assay (clotting time as a function of added FFR-VIIa, 0 to 3.5 nM)” value is listed as “Human factor VIIa-T9Q11E33 exhibited a severe loss of competitive binding affinity”.
